Assay results published in article PMC9728202, “Molecular and Enzymatic Features of Homoserine Dehydrogenase from Bacillus subtilis” (Journal of Microbiology and Biotechnology, 2020).

Tests used:
[1] = target: the molecule itself; assay: SEC; Superdex-200 10/300 GL, 20 mM Tris-HCl pH 8.0, 0.1 mM TCEP, 400 mM NaCl, 0.5 mL/min; mass from a standard curve of standard proteins
purified protein [2] = substrate: N[C@@H](CCO)C(=O)O; assay: purified protein; assay type: biochemical, Bacillus subtilis; settings: oxidation, 2 mM NADP+, pH 9.0, 400 mM NaCl, 25°C, apparent
purified protein [3] = substrate: NC(=O)c1ccc[n+]([C@@H]2O[C@H](COP(=O)(O)OP(=O)(O)OC[C@H]3O[C@@H](n4cnc5c(N)ncnc54)[C@H](OP(=O)(O)O)[C@@H]3O)[C@@H](O)[C@H]2O)c1; assay: purified protein; assay type: biochemical, Bacillus subtilis; settings: oxidation, 100 mM L-homoserine, pH 9.0, 400 mM NaCl, 25°C, apparent, varied: cofactor

B1: Homoserine dehydrogenase from Bacillus subtilis (enzyme, Bacillus subtilis strain 168, UniProt P19582 1-433, looked up)
chain: MKAIRVGLLGLGTVGSGVVKIIQDHQDKLMHQVGCPVTIKKVLVKDLEKKREVDLPKEVLTTEVYDVIDDPDVDVVIEVIGGVEQTKQYLVDALRSKKHVVTANKDLMAVYGSELLAEAKENGCDIYFEASVAGGIPILRTLEEGLSSDRITKMMGIVNGTTNFILTKMIKEKSPYEEVLKEAQDLGFAEADPTSDVEGLDAARKMAILARLGFSMNVDLEDVKVKGISQITDEDISFSKRLGYTMKLIGIAQRDGSKIEVSVQPTLLPDHHPLSAVHNEFNAVYVYGEAVGETMFYGPGAGSMPTATSVVSDLVAVMKNMRLGVTGNSFVGPQYEKNMKSPSDIYAQQFLRIHVKDEVGSFSKITSVFSERGVSFEKILQLPIKGHDELAEIVIVTHHTSEADFSDILQNLNDLEVVQEVKSTYRVEGNGWS
notes: Homoserine dehydrogenase (gene hom) of Bacillus subtilis strain 168, 433 amino acid residues; Calculated mass of the monomer printed as 48.3 kDa; Surmised: cloning through XhoI into pET26b adds Leu-Glu before the His6 tag; no removal of the tag is told; also called BsHSD; HSD; source: E. coli Rosetta2 (DE3), purified (HisTrapFF, HiPrep 26/10 Desalting, Superdex-200)
In the case of B1, the “stoichiometry N” value [1] is reported as 4, the Km (purified protein [2]) is reported as 35.08 ± 2.91 mM and the Vmax (purified protein [2]) is reported as 2.72 µmol/min/mg. The kcat (purified protein [2]) was 1.07 ± 0.02 s⁻¹, the kcat/Km (purified protein [2]) was 30 ± 10 M⁻¹ s⁻¹ and the Km (purified protein [3]) was 0.39 ± 0.05 mM. The Vmax (purified protein [3]) was 2.79 µmol/min/mg, the kcat (purified protein [3]) was 1.1 ± 0.04 s⁻¹ and the kcat/Km (purified protein [3]) was 2860 ± 910 M⁻¹ s⁻¹.
